These results are taken from the supplement of paper PMC12636428.

This data set deals with Saccharomyces cerevisiae. Description: transcriptional activation domain activity (GFP:mCherry ratio, weighted mean of sorted bins, harmonized to initial dataset scale) (arbitrary fluorescence ratio units); higher = stronger transcriptional activation. The settings on record: beta-estradiol 1 µM; induction time 4 h. The procedure, abridged:
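In diploid yeast carrying a GFP reporter, barcoded protein tiles fused to an estradiol-inducible synthetic transcription factor were integrated at the URA3 locus. Cultures diluted 1:5 into SC with 1 uM beta-estradiol were kept at 30 °C for 4 hours, then sorted by GFP:mCherry ratio into 8 bins before barcode sequencing. Tiles with under 50 reads were excluded. The activation activity reported here is the read-weighted mean of bin median fluorescence, averaged across barcodes and linearly rescaled to the initial dataset.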
Turning to “LLCILLLVYFIYVALFLVSINTGVTLSGLNIQMSSKYSVYYLLIYHVFGFFWL”, the “transcriptional activation domain activity” value is 58900.
The figure for “ASAAASGASTPATAAPPGGLFGKTPATAAPAAATPAATKSLFPAAATTTAPAA” is 45700.
As to “LYLLIFFPVLLWRYLCIGLDSVLCCHIGFHFPYFMCYFFAIMSVSRSFFYSCI”, the “transcriptional activation domain activity” value amounted to 50700.
In the case of “YFVLLPPTFILLAFPLLVWEFCWLSSSDFLCLLSMGFLFISLSFFFFFFLGNW”, the “transcriptional activation domain activity” value came out at 40400.
As for “TPSSTATTAAPAATSAATPSLFSKPATTSAAPATATAAASTPSGNLFGAKAAA”, the “transcriptional activation domain activity” value was determined as 47500.
For the sequence “YVRRARGYVMYGLFQLMLRFLLAGFFFFSFRGGDMGIGCGYRLLLLLFFFFIY”, the “transcriptional activation domain activity” value stood at 35800.
As to “MFSCLLFLAYLPAISLIPCDCFWVFFFFFFLGCVKTRVLYLFFFFLCCSWFFY”, the “transcriptional activation domain activity” value turned out to be 47400.
Take “IYVLHLFSTFPIFPLFPLFPIFLNFFIFLILILIFPIFPIFPIFPIFLIFPIF”: the “transcriptional activation domain activity” value is 52900.
Regarding “MAGIVTRVCLILCSPLFPLSLRNFIILHCVYLPLSNSWYISPPFLLYCLQTVY”, the “transcriptional activation domain activity” value was 62700.
For “LSKRPGKPPARPSPQAAVQRRSFHATSSALASKDPYKTLGVGKSASASEIKKA”, the “transcriptional activation domain activity” value worked out at 39500.
The figure for “ILRLWQIFWVAAKTDHMSYPRFEAPGCGDFCRDWKVLVAIILIRTKLTMGTRC” is 52200; for “NNNSRSTEDSEDDLAIVGHGTGVERLGGLDALILRQRLLALLIRVAEALPEDF” it is 15200; for “MVFPSKSLFYLVGPCLSFFFVPPTWYDVFHLLFSPMTLDYYPFVLWYSPFLST” it is 39300.
In the case of “EPAEEEEEEDDDDEDDPEVRRKEELRARMAKMSAGMGGMGGMMNPFAAPVAPG”, the “transcriptional activation domain activity” value was 62200.
As to “IIVKTEIMIRNRHPRFLRITLDSVSNLVRLWYIVRLKKLTYYYLLWEFSLLPL”, the “transcriptional activation domain activity” value came to 49700.
Turning to “ACFLGYPIQIDPTFTDFELLSSFSGVIDSCAQSDTLWDFNSFDVAAVLSPLLD”, the “transcriptional activation domain activity” value was found to be 143000.
With “ADRLIRILRILMFNWKFWNTGCFATYDPNSNLVRLEIPCSRDLLGTKPGTYYY”, the “transcriptional activation domain activity” value worked out at 50200.
The figure for “GKEKKDGEAAAPAAANHAPAEASAPAQTSSRPEGGERGRGRGRGHKGERGGAG” is 43200.
In the case of “PFPLPLLLPCPLPLLFPLSFPLLLLLPFLLPLLFTLSFTLLFMLSFPLLFMLS”, the “transcriptional activation domain activity” value stood at 47900.
Consider “HFLGALIMLLGGYFHANLIHFGSYIWPSFLVWGLDRLIRLARVVYFNHLYFGF”, for which the “transcriptional activation domain activity” value stood at 34500.
“QCYNYLRVILMVSVGQGLARSVHWCMFLYQQGLDYVLWYYRNTLLLVSFLIGW”: the “transcriptional activation domain activity” value came to 62200.
The figure for “MLLRRAVSLGVEGFFIFFYFLLMGLHCICLRGSSPWVDMFLFFVFFVSLVGFF” is 72200; for “NLMIIVLVVSNLRLMIENYRKYGVLICIQCHDYRQQDILYGLILYLLVPCHLF” it is 39400.
As to “VQVVGVLCVGWSLKVWTMHLLGDGGVAVLVKGRTRTVPMAWEEWGAVVEVMRG”, the “transcriptional activation domain activity” value is 40300.
The figure for “TDPKPITDNGKNVPLDEIESLEIPNLDLTTTMNGYDVNLLMQNLNDMVNMKLH” is 91600; for “SFLYWGSAGLFGIYVMSFQDSWWYQMEHLWVKYPHWMMRSELKVYYLLQFSYW” it is 21600; for “AGGGNHPPPPPPPPPPAGRSGGAPPPPPPPPPPPPGAGGGNHPPPPPPPPPPP” it is 23500.
“EMRHVILIVFIGMVGCWISQWVFWVGFLKLYSGQGYCPPRLGTLALNWILFSV”: the “transcriptional activation domain activity” value is 43200.
The figure for “RKSAATEEKEEKKEAPKAKRAKKAKEPEPEVEAEAEAAAEKVEEVKEKKKPGR” is 24800.
Turning to “VTFILALLVRLRRNLPLYSWMHWLHRHIDTLSSYDGISARPAWALFFIRLVWY”, the “transcriptional activation domain activity” value stood at 74400.
As for “MLMGCLCSYLRPHSLGCEGCYLLLHSLFIYGLRLVIGRFMSWSFSLVSFLFFY”, the “transcriptional activation domain activity” value is 62100.
On to “KDSDDESEDSDAKSKKRKKRKRVVESDEGSGSEAESKKRKKKRKAEDSDVSGS”, for which the “transcriptional activation domain activity” value was 22600.
Turning to “NEITIQDLNFLQFSSIPKLWENKTLEPGEEYHHSNGTNTDNNETTGADDTDDN”, the “transcriptional activation domain activity” value was found to be 24500.
With “VANHQIYADWLYVWCLTYFMGMHKDVLIVLKRSLKWVPVLGWGMQIFRFIFLA”, the “transcriptional activation domain activity” value is 70100.
Turning to “MIFSNLLVLSLLCSLFLFFYFFFYVLCFFLFAYTLSRSLYITILGFFDLVIVF”, the “transcriptional activation domain activity” value came out at 66200.
In the case of “GGEEGRRKEREAGGRGTQKGEEEGDEVGRGGRGRRQREGRERGEARAGAGRRR”, the “transcriptional activation domain activity” value turned out to be 30800.
“QLRLFQFDRLVEELLPLVHTHFIRKGIKSSMFASQWFMTLFSYRFPLSLVYRV”: the “transcriptional activation domain activity” value came to 66200.
As for “SRHGREASEERARRKRRERQRDNDGGNRSRRKHTSPSSDDADRLTRKRKSRHE”, the “transcriptional activation domain activity” value stood at 11000.
Take “QVKGNAATLVVRSLALNADLCKLVECLWFLDRYVLVEGKHWAAALPRMKNLWF”: the “transcriptional activation domain activity” value was determined as 32200.
“MIRDTPKSPSHPPSARSSSSRASSTTSCLSSTSTPAARTSSSSTTARTPVPRP”: the “transcriptional activation domain activity” value came out at 28600.
“LFYNQVSKLLIINCYEASYMCVIYTVGSIGNIGSRCQNLRTGSTFKTLVKYID”: the “transcriptional activation domain activity” value is 54000.
Consider “PAPAAAAASSSTATEKASGEQQPRESKRNPRHRNKRGRDNKDKDGKEGAGGKS”, for which the “transcriptional activation domain activity” value is 28100.
The figure for “EDEEDAVNGTALSEEDAAERDAKLKRLREEAERKALARRSQAVQRGLPRPANV” is 14900.
With “ITWSQLRRRFTPGFETFLDIGIERGWYSCNNTLQVMVFRWVFIPWLQQELSAY”, the “transcriptional activation domain activity” value was determined as 30600.
As to “DDEHEDRHREGRGSRGDRTRSASADSKHRSSRRDKEKHRSSRSHRDRSKEQRR”, the “transcriptional activation domain activity” value was 37400.
“ESGCGREDMTVKSGIVFSFYFFCCLFFFLLSLFVCFPPPFFFILLFPIFIHLY”: the “transcriptional activation domain activity” value stood at 18900.
For the sequence “MDGLFFFFFPFFFLFITLPTNFILFLIVGGSSSSLFFFFGFWFLVWFGLVYLC”, the “transcriptional activation domain activity” value was found to be 27600.
As to “QQAHHNVSGPTSKTLLPFLPLHKLMLSNILSPNVRLLFPPLLPLQLSWILWAL”, the “transcriptional activation domain activity” value amounted to 61800.
For “MVAVVEVWVGEGVGEFWHLVKVWEGFLKLEYPVFFFDVWFFYDPFFCALGFFI”, the “transcriptional activation domain activity” value was found to be 79300.
The figure for “KIHLVNIAQVVVFFIYRFLYGLIPLFEISTCAYYPLLVSLWHLDYLLFYTVMF” is 64000; for “LNLRRPLAFGGMATLLTYLIVPIYFSGVCYRLRLTLPPFLFLILRVSFELFVL” it is 67800; for “MHPCTLLSFRVFAYFYLLLIPPPPLLYSYLSYTNIYSYIIVLLLLLLFYVTIV” it is 54800.
With “MRRVTQQTGKGKIPSMYSLVVIGNGDGLVGYGEAKDDEPAAAREKATAKALRS”, the “transcriptional activation domain activity” value was 46400.
Consider “ARDMLEDTFLIPKNLYAVHGPGISVKALEIADALVDVVNQYDQNAESEAWNFL”, for which the “transcriptional activation domain activity” value is 112000.
With “MSTGVSSFLQYVFLFTPYFIFSYFLAVDCWCFSLPLFCLAIPSIFLFLFLFLL”, the “transcriptional activation domain activity” value came out at 24900.
